The target in experiment [1] is human S100A2 (human) (UniProt P29034). Description: ITC. (Isothermal titration calorimetry measures the heat released or taken up as one component is titrated into another.)
In experiment [2] the target is human S100B (human) (UniProt P04271). Description: ITC.
Chain of human S100B (human) (P04271 whole entry): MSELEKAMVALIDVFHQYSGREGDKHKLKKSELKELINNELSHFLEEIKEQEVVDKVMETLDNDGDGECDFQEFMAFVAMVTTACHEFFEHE

Chain of human S100A2 (human) (P29034 whole entry): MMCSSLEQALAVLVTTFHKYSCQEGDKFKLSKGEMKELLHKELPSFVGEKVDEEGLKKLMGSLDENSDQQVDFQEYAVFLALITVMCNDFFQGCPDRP

In experiment [1], TRTK12 wild-type peptide (Ac-…-NH2) had a stoichiometry N (peptides per S100A2 dimer) of 2. The stoichiometry N (peptides per S100B dimer) in experiment [2] is 2.

Values taken from paper PMC3839042.
